What was measured:
[1] = target: GST-syntaxin 1A H3 domain construct Syn 1A16 (amino acids 191-266) (Schistosoma japonicum; rat); assay: 20S complex on GST-Syn 1A16 beads, ATP and Mg++, Western blot densitometry
[2] = target: GST-syntaxin 1A (Syn1A11) point mutant 12 (four point mutations) (Schistosoma japonicum; rat); assay: GST-syntaxin point mutant on glutathione beads, soluble ligand, Western blot densitometry, FIG. 5B
[3] = target: GST-syntaxin 1A (Syn1A11) point mutant 13 (four point mutations) (Schistosoma japonicum; rat); assay: as above
[4] = target: GST-syntaxin 1A (Syn1A11) point mutant 34 (Schistosoma japonicum; rat); assay: as above
[5] = target: GST-syntaxin 1A (Syn1A11) point mutant 45 (Schistosoma japonicum; rat); assay: as above
[6] = target: GST-syntaxin 1A (Syn1A11) point mutant M1: R198A, I202A (Schistosoma japonicum; rat); assay: as above
[7] = target: GST-syntaxin 1A (Syn1A11) point mutant M2: L205A, I209A (Schistosoma japonicum; rat); assay: as above
[8] = target: GST-syntaxin 1A (Syn1A11) point mutant M3: L212A, F216A (Schistosoma japonicum; rat); assay: as above
[9] = target: GST-syntaxin 1A (Syn1A11) point mutant M4: V223A, Q226A (Schistosoma japonicum; rat); assay: as above
[10] = target: GST-syntaxin 1A (Syn1A11) point mutant M5: I230A, I233A (Schistosoma japonicum; rat); assay: as above
[11] = target: GST-syntaxin 1A (Syn1A11) point mutant M6: A240V, V244A (Schistosoma japonicum; rat); assay: as above
[12] = target: GST-syntaxin 1A cytoplasmic domain fusion protein (Syn 1A11, amino acids 4-266), immobilized on glutathione agarose beads (Schistosoma japonicum; rat); assay: GST-syntaxin 1A (wild type) on glutathione beads, soluble ligand, Western blot densitometry, FIG. 5B
[13] = target: GST-syntaxin 1A H3 domain construct Syn 1A16 (amino acids 191-266) (Schistosoma japonicum; rat); assay: 20S complex assembly on GST-syntaxin beads with all four proteins together, ATP, 18° C. overnight MgCl2, Western blot densitometry, FIG. 6B
[14] = target: GST-syntaxin 1A cytoplasmic domain fusion protein (Syn 1A11, amino acids 4-266), immobilized on glutathione agarose beads (Schistosoma japonicum; rat); assay: as above
[15] = target: GST-syntaxin 1A deletion mutant Syn 1A13 (amino acids 4-221) (Schistosoma japonicum; rat); assay: as above
[16] = target: GST-syntaxin 1A deletion mutant Syn 1A17 (amino acids 4-240) (Schistosoma japonicum; rat); assay: as above
[17] = target: GST-syntaxin 1A deletion mutant Syn 1A6 (amino acids 4-190) (Schistosoma japonicum; rat); assay: as above
[18] = target: GST-syntaxin 1A cytoplasmic domain fusion protein (Syn 1A11, amino acids 4-266), immobilized on glutathione agarose beads (Schistosoma japonicum; rat); assay: 20S complex assembly on GST-syntaxin beads with SNAP-25, VAMP, α-SNAP and NSF added together, ATP, 25° C., Western blot densitometry, FIG. 6A
[19] = target: GST-syntaxin 1A cytoplasmic domain fusion protein (Syn 1A11, amino acids 4-266), immobilized on glutathione agarose beads (Schistosoma japonicum; rat); assay: 20S complex assembly on GST-syntaxin beads with SNAP-25, VAMP, α-SNAP and NSF added together, ATPγS, 25° C., Western blot densitometry, FIG. 6A
[20] = target: GST-syntaxin 1A deletion mutant Syn 1A4 (amino acids 8-76) (Schistosoma japonicum; rat); assay: GST-syntaxin deletion mutant on glutathione beads, soluble ligand, Western blot densitometry; FIG. 4C row 1 from top, row label only in the figure (assigned by Table 1 order and paragraph 328)
[21] = target: GST-syntaxin 1A deletion mutant Syn 1A5 (amino acids 4-114) (Schistosoma japonicum; rat); assay: GST-syntaxin deletion mutant on glutathione beads, soluble ligand, Western blot densitometry; FIG. 4C row 2 from top, row label only in the figure (assigned by Table 1 order and paragraph 328)
[22] = target: GST-syntaxin 1A deletion mutant Syn 1A6 (amino acids 4-190) (Schistosoma japonicum; rat); assay: GST-syntaxin deletion mutant on glutathione beads, soluble ligand, Western blot densitometry; FIG. 4C row 3 from top, row label only in the figure (assigned by Table 1 order and paragraph 328)
[23] = target: GST-syntaxin 1A deletion mutant Syn 1A13 (amino acids 4-221) (Schistosoma japonicum; rat); assay: GST-syntaxin deletion mutant on glutathione beads, soluble ligand, Western blot densitometry; FIG. 4C row 4 from top, row label only in the figure (assigned by Table 1 order and paragraph 328)
[24] = target: GST-syntaxin 1A deletion mutant Syn 1A17 (amino acids 4-240) (Schistosoma japonicum; rat); assay: GST-syntaxin deletion mutant on glutathione beads, soluble ligand, Western blot densitometry; FIG. 4C row 5 from top, row label only in the figure (assigned by Table 1 order and paragraph 328)
[25] = target: GST-syntaxin 1A cytoplasmic domain fusion protein (Syn 1A11, amino acids 4-266), immobilized on glutathione agarose beads (Schistosoma japonicum; rat); assay: GST-syntaxin deletion mutant on glutathione beads, soluble ligand, Western blot densitometry; FIG. 4C row 6 from top, row label only in the figure (assigned by Table 1 order and paragraph 328)

His-tagged α-SNAP (soluble NSF attachment protein), soluble recombinant, sequence (P81125 whole entry): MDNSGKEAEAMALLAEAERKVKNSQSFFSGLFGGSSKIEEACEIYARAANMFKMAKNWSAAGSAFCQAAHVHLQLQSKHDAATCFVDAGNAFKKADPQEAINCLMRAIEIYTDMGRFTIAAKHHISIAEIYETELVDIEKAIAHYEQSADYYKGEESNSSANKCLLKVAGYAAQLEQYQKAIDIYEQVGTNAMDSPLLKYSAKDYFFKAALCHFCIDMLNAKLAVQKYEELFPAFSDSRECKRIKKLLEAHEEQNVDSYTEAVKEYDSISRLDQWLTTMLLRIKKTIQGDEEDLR
SNAP-25 (synaptosomal-associated protein of 25 kDa), soluble recombinant, sequence (chain): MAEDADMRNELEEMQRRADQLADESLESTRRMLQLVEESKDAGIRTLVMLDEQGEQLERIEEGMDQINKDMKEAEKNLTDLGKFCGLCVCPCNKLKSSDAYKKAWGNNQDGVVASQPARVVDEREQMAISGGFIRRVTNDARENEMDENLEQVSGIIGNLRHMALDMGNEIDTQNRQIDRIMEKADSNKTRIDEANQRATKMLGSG

Substance	percent dissociated in the presence of ATP and Mg++ [1] [%]	densitometry pixel value [2] [pixel value]	densitometry pixel value [3] [pixel value]	densitometry pixel value [4] [pixel value]	densitometry pixel value [5] [pixel value]	densitometry pixel value [6] [pixel value]	densitometry pixel value [7] [pixel value]	densitometry pixel value [8] [pixel value]	densitometry pixel value [9] [pixel value]	densitometry pixel value [10] [pixel value]	densitometry pixel value [11] [pixel value]	densitometry pixel value [12] [pixel value]	densitometry pixel value [13] [pixel value]	densitometry pixel value [14] [pixel value]	densitometry pixel value [15] [pixel value]	densitometry pixel value [16] [pixel value]	densitometry pixel value [17] [pixel value]	densitometry pixel value [18] [pixel value]	densitometry pixel value [19] [pixel value]	densitometry pixel value [20] [pixel value]	also measured
His-tagged α-SNAP (soluble NSF attachment protein), soluble recombinant (from UniProt P81125)	0	23	15	10	7	53	36	23	43	25	633	414	1540	331	0	793	0	132	1490	0	densitometry pixel value [21]: 0 pixel value; densitometry pixel value [22]: 0 pixel value; densitometry pixel value [23]: 0 pixel value; densitometry pixel value [24]: 1660 pixel value; densitometry pixel value [25]: 1670 pixel value
SNAP-25 (synaptosomal-associated protein of 25 kDa), soluble recombinant	5	361	143	712	640	586	672	866	754	824	875	555	484	75	1310	546	0	768	839	19	densitometry pixel value [21]: 19 pixel value; densitometry pixel value [22]: 9 pixel value; densitometry pixel value [23]: 417 pixel value; densitometry pixel value [24]: 623 pixel value; densitometry pixel value [25]: 797 pixel value
VAMP (vesicle-associated membrane protein; VAMP 2), soluble recombinant	0	0	0	0	0	37	17	0	0	0	0	2610	951	133	1560	903	0	32	528	0	densitometry pixel value [21]: 0 pixel value; densitometry pixel value [22]: 0 pixel value; densitometry pixel value [23]: 0 pixel value; densitometry pixel value [24]: 0 pixel value; densitometry pixel value [25]: 286 pixel value

Source: patent US5693476
